Laboratory results published in patent publication US20260258113.

Biological target: alpha globin, endogenous, in perfused human omental arteries, P69905
Sequence (P69905 2-142): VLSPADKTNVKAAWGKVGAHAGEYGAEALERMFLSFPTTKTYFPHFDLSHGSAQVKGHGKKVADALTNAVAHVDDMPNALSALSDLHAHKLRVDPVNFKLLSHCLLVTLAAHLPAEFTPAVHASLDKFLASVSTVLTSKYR

B1: endothelial nitric oxide synthase (eNOS), endogenous, in human resistance arteries (protein)
chain: GNLKSVAQEPGPPCGLGLGLGLGLCGKQGPATPAPEPSRAPASLLPPAPEHSPPSSPLTQPPEGPKFPRVKNWEVGSITYDTLSAQAQQDGPCTPRRCLGSLVFPRKLQGRPSPGPPAPEQLLSQARDFINQYYSSIKRSGSQAHEQRLQEVEAEVAATGTYQLRESELVFGAKQAWRNAPRCVGRIQWGKLQVFDARDCRSAQEMFTYICNHIKYATNRGNLRSAITVFPQRCPGRGDFRIWNSQLVRYAGYRQQDGSVRGDPANVEITELCIQHGWTPGNGRFDVLPLLLQAPDDPPELFLLPPELVLEVPLEHPTLEWFAALGLRWYALPAVSNMLLEIGGLEFPAAPFSGWYMSTEIGTRNLCDPHRYNILEDVAVCMDLDTRTTSSLWKDKAAVEINVAVLHSYQLAKVTIVDHHAATASFMKHLENEQKARGGCPADWAWIVPPISGSLTPVFHQEMVNYFLSPAFRYQPDPWKGSAAKGTGITRKKTFKEVANAVKISASLMGTVMAKRVKATILYGSETGRAQSYAQQLGRLFRKAFDPRVLCMDEYDVVSLEHETLVLVVTSTFGNGDPPENGESFAAALMEMSGPYNSSPRPEQHKSYKIRFNSISCSDPLVSSWRRKRKESSNTDSAGALGTLRFCVFGLGSRAYPHFCAFARAVDTRLEELGGERLLQLGQGDELCGQEEAFRGWAQAAFQAACETFCVGEDAKAAARDIFSPKRSWKRQRYRLSAQAEGLQLLPGLIHVHRRKMFQATIRSVENLQSSKSTRATILVRLDTGGQEGLQYQPGDHIGVCPPNRPGLVEALLSRVEDPPAPTEPVAVEQLEKGSPGGPPPGWVRDPRLPPCTLRQALTFFLDITSPPSPQLLRLLSTLAEEPREQQELEALSQDPRRYEEWKWFRCPTLLEVLEQFPSVALPAPLLLTQLPLLQPRYYSVSSAPSTHPGEIHLTVAVLAYRTQDGLGPLHYGVCSTWLSQLKPGDPVPCFIRGAPSFRLPPDPSLPCILVGPGTGIAPFRGFWQERLHDIESKGLQPTPMTLVFGCRCSQLDHLYRDEVQNAQQRGVFGRVLTAFSREPDNPKTYVQDILRTELAAEVHRVLCLERGHMFVCGDVTMATNVLQTVQRILATEGDMELDEAGDVIGVLRDQQRYHEDIFGLTLRTQEVTSRIRTQSFSLQERQLRGAVPWAFDPPGSDTNSP
  ROI average fluorescence lifetime after co-labelling with the alpha globin and eNOS antibodies (FLIM, FRET-like shift): the eNOS + HBA ROIs lie at about 2.9 to 3.6 ns, below HBA alone (about 3.6 to 4.2 ns) and eNOS alone (about 3.8 to 4.15 ns); p<0.0001 printed for both comparisons
  fluorescence lifetime histogram after co-labelling with the alpha globin and eNOS antibodies (FLIM, FRET-like shift): the co-labelled curve d (HBA + eNOS) peaks at about 3.95 ns, left of HBA only (b, about 4.2 ns), eNOS only (c, about 4.25 ns) and unstained (a, about 4.35 ns)
